This passage reports Kd results from publication PMC5534435, “The Amyloid Precursor Protein Is a Conserved Receptor for Slit to Mediate Axon Guidance” (eNeuro, 2017).

The target in this assay is T1, Rat Robo1 tagged with the hemagglutinin (Robo1-HA) (rat, UniProt O55005 26-1651).
T1 construct: Roundabout homolog 1 (Robo1), rat; The sentence with the Kd calls it Robo2, the methods name only rat Robo1-HA; also called Robo-HA; HA-Robo; source: HEK293, transfected
Description: binding of alkaline phosphatase-tagged ligand to transfected cells; HEK293 cells transfected with FL APP or HA-Robo incubated with serial dilutions of supernatants with AP-tagged Slit2 and 1 μg/ml heparin, 2 h at 37°C; AP activity in cell lysates; Hill equation, Scatchard plot. Conditions: partners not purified.

T1 sequence (O55005 26-1651): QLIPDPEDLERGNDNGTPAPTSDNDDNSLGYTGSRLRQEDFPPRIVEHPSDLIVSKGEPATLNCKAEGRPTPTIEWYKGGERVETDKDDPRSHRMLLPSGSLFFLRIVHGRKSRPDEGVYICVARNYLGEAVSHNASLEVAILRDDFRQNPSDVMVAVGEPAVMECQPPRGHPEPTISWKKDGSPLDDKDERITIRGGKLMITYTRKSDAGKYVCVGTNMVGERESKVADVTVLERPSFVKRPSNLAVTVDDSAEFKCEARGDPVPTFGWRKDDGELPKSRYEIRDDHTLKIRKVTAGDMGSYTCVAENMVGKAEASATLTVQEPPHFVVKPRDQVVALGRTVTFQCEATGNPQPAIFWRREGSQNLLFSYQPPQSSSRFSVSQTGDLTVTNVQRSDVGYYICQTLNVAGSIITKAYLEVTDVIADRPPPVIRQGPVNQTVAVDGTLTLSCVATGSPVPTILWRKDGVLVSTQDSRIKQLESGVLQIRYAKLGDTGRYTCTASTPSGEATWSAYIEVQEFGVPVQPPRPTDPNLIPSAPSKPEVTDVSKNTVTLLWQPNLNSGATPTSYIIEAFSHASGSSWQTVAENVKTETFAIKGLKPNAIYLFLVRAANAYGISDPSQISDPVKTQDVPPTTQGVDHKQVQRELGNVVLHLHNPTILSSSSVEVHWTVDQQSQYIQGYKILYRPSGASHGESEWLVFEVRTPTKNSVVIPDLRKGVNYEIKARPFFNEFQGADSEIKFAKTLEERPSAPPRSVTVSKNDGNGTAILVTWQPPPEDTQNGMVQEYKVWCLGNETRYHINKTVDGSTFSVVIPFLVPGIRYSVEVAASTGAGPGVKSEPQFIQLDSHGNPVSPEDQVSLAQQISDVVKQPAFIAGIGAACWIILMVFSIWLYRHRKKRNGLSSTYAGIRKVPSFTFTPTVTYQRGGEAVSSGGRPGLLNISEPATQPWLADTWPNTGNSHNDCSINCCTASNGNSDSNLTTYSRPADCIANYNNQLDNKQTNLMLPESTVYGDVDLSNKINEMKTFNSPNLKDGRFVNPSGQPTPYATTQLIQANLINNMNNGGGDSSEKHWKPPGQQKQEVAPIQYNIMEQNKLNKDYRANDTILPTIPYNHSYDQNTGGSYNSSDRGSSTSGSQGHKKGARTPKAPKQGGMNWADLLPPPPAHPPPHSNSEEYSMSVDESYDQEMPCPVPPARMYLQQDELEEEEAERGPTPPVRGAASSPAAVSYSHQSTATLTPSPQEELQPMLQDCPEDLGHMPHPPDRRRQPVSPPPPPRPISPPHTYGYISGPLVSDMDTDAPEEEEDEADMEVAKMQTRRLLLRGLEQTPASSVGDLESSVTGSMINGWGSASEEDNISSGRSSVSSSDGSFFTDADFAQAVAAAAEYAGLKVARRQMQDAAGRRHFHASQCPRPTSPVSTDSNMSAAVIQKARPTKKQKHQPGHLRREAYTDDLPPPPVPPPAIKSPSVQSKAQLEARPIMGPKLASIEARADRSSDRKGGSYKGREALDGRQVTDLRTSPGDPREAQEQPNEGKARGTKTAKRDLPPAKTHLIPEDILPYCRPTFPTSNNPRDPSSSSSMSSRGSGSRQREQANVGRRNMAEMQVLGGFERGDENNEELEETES

B1: FL Slit2 fused N terminally to the human alkaline phosphatase sequence (ligand, UniProt O94813 31-1529, looked up)
chain: QCSCSGSTVDCHGLALRSVPRNIPRNTERLDLNGNNITRITKTDFAGLRHLRVLQLMENKISTIERGAFQDLKELERLRLNRNHLQLFPELLFLGTAKLYRLDLSENQIQAIPRKAFRGAVDIKNLQLDYNQISCIEDGAFRALRDLEVLTLNNNNITRLSVASFNHMPKLRTFRLHSNNLYCDCHLAWLSDWLRQRPRVGLYTQCMGPSHLRGHNVAEVQKREFVCSGHQSFMAPSCSVLHCPAACTCSNNIVDCRGKGLTEIPTNLPETITEIRLEQNTIKVIPPGAFSPYKKLRRIDLSNNQISELAPDAFQGLRSLNSLVLYGNKITELPKSLFEGLFSLQLLLLNANKINCLRVDAFQDLHNLNLLSLYDNKLQTIAKGTFSPLRAIQTMHLAQNPFICDCHLKWLADYLHTNPIETSGARCTSPRRLANKRIGQIKSKKFRCSAKEQYFIPGTEDYRSKLSGDCFADLACPEKCRCEGTTVDCSNQKLNKIPEHIPQYTAELRLNNNEFTVLEATGIFKKLPQLRKINFSNNKITDIEEGAFEGASGVNEILLTSNRLENVQHKMFKGLESLKTLMLRSNRITCVGNDSFIGLSSVRLLSLYDNQITTVAPGAFDTLHSLSTLNLLANPFNCNCYLAWLGEWLRKKRIVTGNPRCQKPYFLKEIPIQDVAIQDFTCDDGNDDNSCSPLSRCPTECTCLDTVVRCSNKGLKVLPKGIPRDVTELYLDGNQFTLVPKELSNYKHLTLIDLSNNRISTLSNQSFSNMTQLLTLILSYNRLRCIPPRTFDGLKSLRLLSLHGNDISVVPEGAFNDLSALSHLAIGANPLYCDCNMQWLSDWVKSEYKEPGIARCAGPGEMADKLLLTTPSKKFTCQGPVDVNILAKCNPCLSNPCKNDGTCNSDPVDFYRCTCPYGFKGQDCDVPIHACISNPCKHGGTCHLKEGEEDGFWCICADGFEGENCEVNVDDCEDNDCENNSTCVDGINNYTCLCPPEYTGELCEEKLDFCAQDLNPCQHDSKCILTPKGFKCDCTPGYVGEHCDIDFDDCQDNKCKNGAHCTDAVNGYTCICPEGYSGLFCEFSPPMVLPRTSPCDNFDCQNGAQCIVRINEPICQCLPGYQGEKCEKLVSVNFINKESYLQIPSAKVRPQTNITLQIATDEDSGILLYKGDKDHIAVELYRGRVRASYDTGSHPASAIYSVETINDGNFHIVELLALDQSLSLSVDGGNPKIITNLSKQSTLNFDSPLYVGGMPGKSNVASLRQAPGQNGTSFHGCIRNLYINSELQDFQKVPMQTGILPGCEPCHKKVCAHGTCQPSSQAGFTCECQEGWMGPLCDQRTNDPCLGNKCVHGTCLPINAFSYSCKCLEGHGGVLCDEEEDLFNPCQAIKCKHGKCRLSGLGQPYCECSSGYTGDSCDREISCRGERIRDYYQKQQGYAACQTTKKVSRLECRGGCAGGQCCGPLRSKRRKYSFECTDGSSFVDEVEKVVKCGCTRCVS
notes: Slit2, full length, put in place of Netrin 5 in the vector Ntn5.a-AP-His (Addgene); also called AP-tagged Slit2; alkaline phosphatase (AP)-tagged Slit2; source: HEK293T, transfected, in supernatant; not shown: alkaline phosphatase (human), C-terminal, kept
With B1, the Kd was 19.6 nM.
